Measurements reported in patent US20240294622A1 (SUZHOU TRANSCENTA THERAPEUTICS, published 2024).
Positions count from the first letter of the chain named.

T1: HGREM1-His (ACRO) (human, UniProt O60565 25-184)
T1 construct: Lys25-Asp184 of NP_037504 with C-terminal polyhistidine tag (ACRO GR1-H52H3); they are put here; also called hGREM1 (ACRO); human gremlin (ACRO)
T1 sequence: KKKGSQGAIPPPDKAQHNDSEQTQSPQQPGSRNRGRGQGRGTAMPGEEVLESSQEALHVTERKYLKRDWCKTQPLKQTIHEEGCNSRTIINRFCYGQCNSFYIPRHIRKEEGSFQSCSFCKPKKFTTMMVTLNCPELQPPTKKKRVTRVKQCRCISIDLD

T2: Mouse Gremlin-His (R&D) (mouse, UniProt O70326 25-184)
T2 construct: Lys25-Asp184 with 10xHis, R&D 956-GR; also called mouse gremlin (R&D); mGREM1
T2 sequence: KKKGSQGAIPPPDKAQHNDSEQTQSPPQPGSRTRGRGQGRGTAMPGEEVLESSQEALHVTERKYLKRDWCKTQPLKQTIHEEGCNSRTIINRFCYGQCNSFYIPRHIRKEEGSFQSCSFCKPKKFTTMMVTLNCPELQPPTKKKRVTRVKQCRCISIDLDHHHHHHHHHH

T3: human Gremlin N33T (C-terminal His-tag) (human, UniProt O60565 25-184)
T3 construct: culture supernatant used
T3 chain: T1 sequence with N33T

T4: human Gremlin_Q27P (C-terminal His-tag) (human, UniProt O60565 25-184)
T4 construct: culture supernatant used
T4 chain: T1 sequence with Q27P

T5: human Gremlin_Q27P/N33T (C-terminal His-tag) (human, UniProt O60565 25-184 at identity 1.00))
T5 construct: culture supernatant used
T5 chain: T1 sequence with Q27P, N33T

B1: 36F5 (antibody, V domains shown)
VH: QVQLQQSGAELARPGASVKLSCKASGYSFTSSGIGWVKQRSGQGLEWIGEIYPRSGNTYNNEKFKGKATLTADKSSSTVYMELRSLTSEDSAVYFCVREAYSHHYYAMDYWGQGTSVTVFS
VL: DVLMTQTPLSLPVSLGGQASISCRSSQSLLHSNGNTYLEWYLQKPGQSPKLLIYKVSNRFSGVPDRLSGSGSGTDFTLKISRVEAEDLGVYYCFQGSHVPFTFGSGTKLEIN
notes: mouse hybridoma antibody; also called hybridoma 36F5
B2: 14E3 (antibody, V domains shown)
VH: QIQLVQSGPELKKPGETVKISCKTSGSTFTTYGMAWMKQAPGKGLTWMGWINTLSGEPTYADDFKGRFAFSLKTSANTAYLQINNLKNEDAATYFCAREPMDYWGQGTSVIVSS
VL: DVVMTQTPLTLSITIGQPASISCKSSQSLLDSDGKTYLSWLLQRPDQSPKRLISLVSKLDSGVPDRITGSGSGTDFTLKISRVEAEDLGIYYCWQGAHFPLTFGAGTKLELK
notes: mouse hybridoma antibody; also called hybridoma 14E3; anti-gremlin1 antibody 14E3

How the values were obtained:
HGREM1-His (ACRO) [1] = molecular target: T1, HGREM1-His (ACRO); assay: competition ELISA, Gremlin-his binding to coated BMP7
Mouse Gremlin-His (R&D) = molecular target: T2, Mouse Gremlin-His (R&D); assay: ELISA, coated mouse gremlin (R&D)
Protocol: Clear polystyrene plates (BEAVER) were coated with 100 μl/well of a […] hGREM1 (ACRO) and mouse gremlin (R&D) in high pH coating buffer overnight at 4° C. Then the plates were washed once on an automatic plate washer using PBS+0.1% Tween 20 (Sigma). 100 μl of block solution consisting of PBS+1% BSA+1% normal goat serum+0.5% Tween 20 (Sigma) was added to each well and incubated at room temperature for 2 hours. Then 100 μl of antibodies in antibody dilution buffer containing PBS+1% BSA+1% normal goat serum+0.01% Tween 20 starting from 2 μg/ml and then serial dilutions were added to each well of the plate and incubated for 1 hours at room temperature. Afterward the plates were washed three times with 200 μl of PBS+0.1% Tween20 followed by adding 100 μl/well 1:10000 Goat anti mouse IgG-HRP (abcam), and incubate for 1 hour at room temperature. They were then washed 3× with PBS+0.1% Tween20. Finally, 100 µl/well of TMB (Pierce) was added to each well and after several minutes add 50 μl of stop solution to each well. The plates were read on a Multiscan FC microplate reader (Thermo Scientific) at […].

HGREM1-His (ACRO) [2] = molecular target: T1, HGREM1-His (ACRO); assay: blocking ELISA, Human Gremlin-1 binding to FGFR1
Protocol: Next, 0.25 μg/ml of gremlin was selected to test the blocking activity. The ability of antibodies to block Gremlin binding to human FGFR1-Fc was examined via ELISA. Plates were coated with recombinant FGFR1-Fc (2 μg/ml) overnight and then serial dilutions of antibodies were incubated with 0.25 μg/ml of human Gremlin-his modified for 1 h at RT before this complex was added to coated plates and allowed to incubate for an additional hour at RT. The plates were then washed and added with anti-his HRP (GenScript). Plates were then developed with a TMB solution and stopped by adding stop solution. The plates were read on a plate reader at 450 nm. […] Humanized anti-GREM1 antibodies provided herein (e.g., Hu14E3, Hu22F1) are expected to show the similar technical effect as their chimeric counterparts in blocking the binding of hGREM1 to FGFR1.

[3] = molecular target: T3, human Gremlin N33T (C-terminal His-tag); assay: BLI (Octet): antibody loaded on AHC sensor, supernatant of the gremlin variant as analyte
Protocol: (§1) The supernatant for Gremlin WT and mutants to be tested were added in the Association Column of the plate, 100 ul per well. Media or KD buffer was used as a reference control. Put AHC sensors in the 1st Baseline Column for 60 s to get the 1st baseline, then in the Loading Column for 300 s to capture the Gremlin antibody. After that, put the sensors in the 2nd Baseline Column for 60 s to get the 2nd baseline. Then put them in the Association Column for 300 s to let Gremlin/Gremlin Ab associate completely, put the sensors in the dissociation Column for 300 s. Analyze the group data by ForteBio (Octet96)

[4] = molecular target: T4, human Gremlin_Q27P (C-terminal His-tag); assay: as above
Protocol: as §1

[5] = molecular target: T5, human Gremlin_Q27P/N33T (C-terminal …); assay: as above
Protocol: as §1

| Binder | maximal blocking percentage (HGREM1-His (ACRO) [1]) [%] | EC50 (Mouse Gremlin-His (R&D)) [µg/mL] | IC50 (HGREM1-His (ACRO) [2]) [µg/mL] | binding result [3] | binding result [4] | binding result [5] |
| --- | --- | --- | --- | --- | --- | --- |
| B1 | ≥ 50 | 0.00456 | 1.84 | – | – | – |
| B2 | – | – | – | binds | binds | binds |
